{
  "source": "paper PMC7430671",
  "key": {"[1]": {"molecular_target": "T1, RapZ1-279 (purified) del280-284 (Escherichia coli) (UniProt P0A894)", "T1 sequence": "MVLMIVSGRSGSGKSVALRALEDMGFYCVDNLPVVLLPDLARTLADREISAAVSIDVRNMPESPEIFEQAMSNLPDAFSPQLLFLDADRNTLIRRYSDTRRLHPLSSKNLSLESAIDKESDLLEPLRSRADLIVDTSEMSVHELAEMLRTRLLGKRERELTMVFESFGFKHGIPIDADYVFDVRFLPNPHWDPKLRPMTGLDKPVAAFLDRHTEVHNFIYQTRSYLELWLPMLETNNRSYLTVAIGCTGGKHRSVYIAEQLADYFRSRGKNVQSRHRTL", "assay": "EMSA", "conditions": "EMSA on non-denaturing PAA gels, phospho-imaging; buffer, pH and temperature not given here (as in Göpel 2016; Durica-Mitic and Görke 2019)"}, "[2]": {"molecular_target": "T2, RapZCTD (Escherichia coli) (UniProt P0A894)", "T2 sequence": "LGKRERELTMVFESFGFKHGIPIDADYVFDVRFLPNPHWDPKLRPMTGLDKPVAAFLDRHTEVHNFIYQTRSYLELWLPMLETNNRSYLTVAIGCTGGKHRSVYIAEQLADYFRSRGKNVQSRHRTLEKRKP", "assay": "EMSA", "conditions": "EMSA on non-denaturing PAA gels, phospho-imaging; buffer, pH and temperature not given here (as in Göpel 2016; Durica-Mitic and Görke 2019)"}, "[3]": {"molecular_target": "T3, RapZCTD lacking the 5 C-terminal residues del280-284 (Escherichia coli) (UniProt P0A894)", "T3 sequence": "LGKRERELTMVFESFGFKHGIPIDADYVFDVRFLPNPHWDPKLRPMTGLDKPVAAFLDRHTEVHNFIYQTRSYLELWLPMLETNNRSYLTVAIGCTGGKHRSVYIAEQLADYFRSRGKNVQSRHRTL", "assay": "EMSA", "conditions": "EMSA on non-denaturing PAA gels, phospho-imaging; buffer, pH and temperature not given here (as in Göpel 2016; Durica-Mitic and Görke 2019)"}, "[4]": {"molecular_target": "T4, RapZCTDquad K270A;K281A;R282A;K283A (Escherichia coli) (UniProt P0A894)", "T4 sequence": "T2 sequence with K118A, K129A, R130A, K131A", "assay": "EMSA", "conditions": "EMSA on non-denaturing PAA gels, phospho-imaging; buffer, pH and temperature not given here (as in Göpel 2016; Durica-Mitic and Görke 2019)"}, "[5]": {"molecular_target": "T5, RapZquad (purified) K270A;K281A;R282A;K283A (Escherichia coli) (UniProt P0A894)", "T5 sequence": "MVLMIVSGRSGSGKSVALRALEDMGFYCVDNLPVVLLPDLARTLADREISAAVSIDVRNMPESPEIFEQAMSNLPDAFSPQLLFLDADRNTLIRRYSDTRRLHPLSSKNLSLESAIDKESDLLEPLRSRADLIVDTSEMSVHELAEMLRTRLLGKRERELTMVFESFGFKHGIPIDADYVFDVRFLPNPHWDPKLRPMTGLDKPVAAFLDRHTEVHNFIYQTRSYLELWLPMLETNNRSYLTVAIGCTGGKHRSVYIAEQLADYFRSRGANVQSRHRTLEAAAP", "assay": "EMSA", "conditions": "EMSA on non-denaturing PAA gels, phospho-imaging; buffer, pH and temperature not given here (as in Göpel 2016; Durica-Mitic and Görke 2019)"}, "[6]": {"molecular_target": "RapZ 1-279 T278G L279G (T25 fusion)", "assay": "BACTH assay (self-interaction; β-galactosidase activity)", "conditions": "bottom panel; same RapZ1-279 variant fused to T18 and to T25; mean ± SD, n ≥ 2; parent: est. 4100; read off a plot"}},
  "note": "Residue numbers refer to the chain shown, from its start.",
  "data": [
    {"substance": "GGGAGAGUAGAUGCUCAUUCCAUCUCUUAUGUUCGCCUUAGUGCCUCAUAAACUCCGGAAUGACGCAGAGCCGUUUACGGUGCUUAUCGUCCACUGACAGAUGUCGCUUAUGCCUCAUCAGACACCAUGGACACAACGUUGAGUGAAGCACCCACUUGUUGUCAUACAGACCUGUUUUAACGCCUGCUCCGUAAUAAGAGCAGGCGUUUUUUU [GlmZ sRNA (in vitro transcript)]", "values": [
      {"measurement": "binding", "setting": "[1]", "result": "binds more weakly"},
      {"measurement": "binding", "setting": "[2]", "result": "binds"},
      {"measurement": "binding", "setting": "[3]", "result": "no binding"},
      {"measurement": "binding", "setting": "[4]", "result": "no binding"},
      {"measurement": "binding", "setting": "[5]", "result": "no binding"}
    ]},
    {"substance": "RapZ_(1–279), BACTH fusion (from UniProt P0A894) T278G; L279G", "values": [
      {"measurement": "response", "setting": "[6]", "result": 3600, "unit": "Miller units"}
    ]}
  ]
}
